From US20140271457A1 (AbbVie / Abbott, published 2014)

Molecular target: Recombinant Human IL-13 (human, UniProt P35225 35-146, limits assumed)
Assay: Biacore SPR
In short: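 Kinetic constants come from global 1:1 model fitting (Rmax local) at 0.8–100 nM antigen. Flow was 50 μl/min with 5 min association and 10 min dissociation. Capture used goat anti-mouse IgG Fcγ on a CM5 chip in HBS-EP+ at 25 °C.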

Recombinant Human IL-13, sequence (P35225 35-146 limits assumed): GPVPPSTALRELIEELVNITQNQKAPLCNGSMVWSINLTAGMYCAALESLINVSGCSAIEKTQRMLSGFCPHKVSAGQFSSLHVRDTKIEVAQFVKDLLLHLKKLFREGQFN

B1: DVD3146 (bispecific antibody, IgG1)
VH: EVQLVESGGGLVQPGGSLRLSCAASGFTFSNYGVTWVRQAPGKGLEWVSMIWADGSTHYASSVKGRFTISRDNSKNTLYLQMNSLRAEDTAVYYCAREWQHGPVAYWGQGTLVTVSSASTKGPEVQLVQSGAEVKKPGASVKVSCKASGYTFTSYWMHWVRQAPGQGLEWIGNINPKGGSNIYNEKFQGRVTMTRDTSISTAYMELSRLRSDDTAVYYCARLDYFGDSFDLWGQGTTVTVSS
VL: DIQMTQSPSSLSASVGDRVTITCRASQLVSSAVAWYQQKPGKAPKLLIYWASARHTGVPSRFSGSGSGTDFTLTISSLQPEDFATYYCQQHYKTPFTFGQGTKLEIKRTVAAPSVFIFPPDIQMTQSPSSLSASVGDRVTITCRASQGIRNYLNWYQQKPGKAPKLLIYYASNLEVGVPSRFSGSGSGTDYTLTISSLQPEDFATYYCQQDNRFPYTFGGGTKVEIKR
notes: DVD-Ig; wt hIgG1 + kappa constants
- Kd: 0.24 nM
- koff: 4.6e-05 s⁻¹
- kon: 190000 M⁻¹ s⁻¹

B2: DVD3156 (bispecific antibody, IgG1)
VH: EVQLVESGGGLVQPGGSLRLSCAASGFTFSNYGVEWVRQAPGKGLEWVSGIWADGSTHYADTVKSRFTISRDNSKNTLYLQMNSLRAEDTAVYYCAREWQHGPVAYWGQGTLVTVSSASTKGPEVQLVQSGAEVKKPGASVKVSCKASGYTFTSYWMHWVRQAPGQGLEWIGNINPKGGSNIYNEKFQGRVTMTRDTSISTAYMELSRLRSDDTAVYYCARLDYFGDSFDLWGQGTTVTVSS
VL: DIQMTQSPSSLSASVGDRVTITCKASQLVSSAVAWYQQKPGKAPKLLIYWASTLHTGVPSRFSGSGSGTDFTLTISSLQPEDFATYYCQQHYRTPFTFGQGTKLEIKRTVAAPSVFIFPPDIQMTQSPSSLSASVGDRVTITCRASQGIRNYLNWYQQKPGKAPKLLIYYASNLEVGVPSRFSGSGSGTDYTLTISSLQPEDFATYYCQQDNRFPYTFGGGTKVEIKR
notes: as for B1
- Kd: 0.34 nM
- koff: 5.4e-05 s⁻¹
- kon: 160000 M⁻¹ s⁻¹

B3: DVD3147 (bispecific antibody, IgG1)
VH: EVQLVESGGGLVQPGGSLRLSCAASGFTFSNYGVTWVRQAPGKGLEWVSMIWADGSTHYASSVKGRFTISRDNSKNTLYLQMNSLRAEDTAVYYCAREWQHGPVAYWGQGTLVTVSSASTKGPSVFPLAPEVQLVQSGAEVKKPGASVKVSCKASGYTFTSYWMHWVRQAPGQGLEWIGNINPKGGSNIYNEKFQGRVTMTRDTSISTAYMELSRLRSDDTAVYYCARLDYFGDSFDLWGQGTTVTVSS
VL: DIQMTQSPSSLSASVGDRVTITCRASQLVSSAVAWYQQKPGKAPKLLIYWASARHTGVPSRFSGSGSGTDFTLTISSLQPEDFATYYCQQHYKTPFTFGQGTKLEIKRTVAAPDIQMTQSPSSLSASVGDRVTITCRASQGIRNYLNWYQQKPGKAPKLLIYYASNLEVGVPSRFSGSGSGTDYTLTISSLQPEDFATYYCQQDNRFPYTFGGGTKVEIKR
notes: as for B1
- Kd: < 0.0077 nM
- koff: < 1e-06 s⁻¹
- kon: 130000 M⁻¹ s⁻¹

B4: DVD3157 (bispecific antibody, IgG1)
VH: EVQLVESGGGLVQPGGSLRLSCAASGFTFSNYGVEWVRQAPGKGLEWVSGIWADGSTHYADTVKSRFTISRDNSKNTLYLQMNSLRAEDTAVYYCAREWQHGPVAYWGQGTLVTVSSASTKGPSVFPLAPEVQLVQSGAEVKKPGASVKVSCKASGYTFTSYWMHWVRQAPGQGLEWIGNINPKGGSNIYNEKFQGRVTMTRDTSISTAYMELSRLRSDDTAVYYCARLDYFGDSFDLWGQGTTVTVSS
VL: DIQMTQSPSSLSASVGDRVTITCKASQLVSSAVAWYQQKPGKAPKLLIYWASTLHTGVPSRFSGSGSGTDFTLTISSLQPEDFATYYCQQHYRTPFTFGQGTKLEIKRTVAAPDIQMTQSPSSLSASVGDRVTITCRASQGIRNYLNWYQQKPGKAPKLLIYYASNLEVGVPSRFSGSGSGTDYTLTISSLQPEDFATYYCQQDNRFPYTFGGGTKVEIKR
notes: as for B1
- Kd: 0.0095 nM
- koff: 1.1e-06 s⁻¹
- kon: 110000 M⁻¹ s⁻¹
